We go through five molecules from patent publication US20190225680A1 (NASCIENT, published 2019).

Numbering of substitutions follows the chain as printed.

Assay [1] addresses T1, human TNC rCd4-His-FBG (rat; human).
T1 sequence: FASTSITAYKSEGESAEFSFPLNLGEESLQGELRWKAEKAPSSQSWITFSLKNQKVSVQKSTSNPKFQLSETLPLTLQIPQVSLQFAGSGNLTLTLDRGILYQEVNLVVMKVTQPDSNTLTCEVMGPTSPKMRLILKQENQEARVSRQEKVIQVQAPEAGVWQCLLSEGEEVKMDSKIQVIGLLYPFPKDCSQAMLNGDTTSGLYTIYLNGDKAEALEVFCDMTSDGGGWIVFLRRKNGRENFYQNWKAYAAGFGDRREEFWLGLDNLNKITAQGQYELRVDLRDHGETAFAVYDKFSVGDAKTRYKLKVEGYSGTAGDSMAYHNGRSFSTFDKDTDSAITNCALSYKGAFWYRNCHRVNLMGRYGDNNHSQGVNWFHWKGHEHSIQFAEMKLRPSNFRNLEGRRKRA
Briefly: HTRF competition, scFv supernatant, competitor d2-labelled B12 IgG, biotinylated human rCd4-His-FBG.

The target of assay [2] is T2, mouse TNC rCd4-His-FBG (rat; mouse, UniProt P05540 207-386).
T2 construct: domain: domains 3 and 4; also called Mu TNC; mouse TNC FBG
T2 sequence: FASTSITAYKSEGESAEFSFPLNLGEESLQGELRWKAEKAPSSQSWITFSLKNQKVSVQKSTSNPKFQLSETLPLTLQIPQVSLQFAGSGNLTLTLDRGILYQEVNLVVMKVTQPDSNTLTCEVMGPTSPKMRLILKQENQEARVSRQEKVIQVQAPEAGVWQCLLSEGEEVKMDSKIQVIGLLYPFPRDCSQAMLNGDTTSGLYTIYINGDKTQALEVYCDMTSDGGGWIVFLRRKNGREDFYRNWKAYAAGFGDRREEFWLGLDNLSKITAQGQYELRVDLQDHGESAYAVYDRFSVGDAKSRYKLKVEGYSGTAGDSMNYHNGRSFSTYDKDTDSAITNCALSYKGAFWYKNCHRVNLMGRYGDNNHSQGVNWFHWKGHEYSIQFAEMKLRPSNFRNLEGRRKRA
Briefly: SPR off-rate screen, 25 C, IgG4 from supernatant captured on anti-human Fc, 15 nM antigen, 1:1 fit.

Assay [3] addresses T3, human TNR rCd4-His-FBG (rat; human).
T3 sequence: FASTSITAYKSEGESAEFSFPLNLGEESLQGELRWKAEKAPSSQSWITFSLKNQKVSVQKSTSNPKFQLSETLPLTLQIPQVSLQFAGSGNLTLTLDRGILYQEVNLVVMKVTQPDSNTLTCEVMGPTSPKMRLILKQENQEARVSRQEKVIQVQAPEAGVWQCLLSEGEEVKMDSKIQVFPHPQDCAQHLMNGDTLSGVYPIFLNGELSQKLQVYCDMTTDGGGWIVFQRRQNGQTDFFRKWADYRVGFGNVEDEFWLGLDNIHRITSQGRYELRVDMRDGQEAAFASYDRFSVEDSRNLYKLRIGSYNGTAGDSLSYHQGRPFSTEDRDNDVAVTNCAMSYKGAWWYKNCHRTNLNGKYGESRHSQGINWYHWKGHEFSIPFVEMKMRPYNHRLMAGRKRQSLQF
Briefly: SPR off-rate screen, 25 C, IgG4 from supernatant captured on anti-human Fc, 100 nM antigen, 1:1 fit.

The target in assay [4] is T2, mouse TNC rCd4-His-FBG. Briefly: SPR, BIAcore T100, 37 C, IgG4 captured on anti-human Fc, rCD4-His-FBG injected, 1:1 fit. (SPR reads the build-up and loss of mass on a sensor chip optically.)
Assay [5] has as its target T3, human TNR rCd4-His-FBG (rat; human). Described as above.
Assay [6] concerns the target T4, dog TNC rCD4-His-FBG (rat; dog).
T4 sequence: T2 sequence with I209L, T214A, S269H, Q284R, E288K, S289T, S304T, N322A, Y332F
Described as above.

Assay [7] addresses T1, human TNC rCd4-His-FBG (rat; human). The description is as above.
The target of assay [8] is T5, rat TNC rCd4-His-FBG (rat) (UniProt P05540).
T5 sequence: T2 sequence with A252T
The description is as above.

Assay [9] has as its target T3, human TNR rCd4-His-FBG (rat; human). Briefly: SPR, 37 C, purified IgG4 captured on anti-human Fc.
A further assay deals with T6, human TNR rCd4-His-FBG (rat; human, UniProt P05540 207-386).
T6 construct: domain: domains 3 and 4; also called Hu TNR; human TNR FBG
T6 sequence: T3 sequence
Briefly: SPR, BIAcore T100, 25 C, Fab captured, rCd4-FBG injected. On the procedure: Experiments were performed using a BIAcore T100 instrument with CM5 sensor chip according to the protocol provided with the Human Fab Capture Kit (GE, 28-9583-25). Varying concentrations of rCd4-FBG were injected into a flow-cell with immobilised Fab and a reference flow-cell. After reference signal subtraction, the data was fitted to a global 1:1 fit using theT100 BIAevaluation software.

Assay [10] deals with T2, mouse TNC rCd4-His-FBG. Briefly: anti-FLAG capture DELFIA ELISA, scFv supernatant, biotinylated mouse rCd4-His-FBG. On the procedure:
E. coli clones harbouring scFv pSANG10 expression plasmids were induced in 96-well plates with auto-induction media as described previously (Schofield et al, 2007). E. coli supernatants were harvested for ELISA assays. ELISA used the DELFIA (dissociation enhanced lanthanide fluorescent immunoassay) system with Europium-labelled anti-FLAG antibody (Sigma, Aldrich, UK). Black immunosorb plates (Nunc) were coated overnight with anti-FLAG M2 antibody (Sigma, F3165, 5 μg/ml in PBS, 50 μl per well), in wells blocked by the addition of 2% milk powder, PBS (PBS-M, 300 μl per well). Plates were washed three times with PBS-T (PBS, 0.1% Tween-20) and three times with PBS followed by the addition of a 1:2 dilution of 96-well auto-induction culture supernatants containing expressed scFv in PBS-M (50 μl per well). The plates were incubated for 1 h, washed as above and biotinylated mouse or human rCd4-His-FBG (5 μg/ml in PBS-M, 50 μl) added to each well. Plates were incubated for a further 1 h, washed and Strepravidin-Eu added (Perkin Elmer, 1 μg/ml, PBS-M, 50 μl), incubated for 30 min, washed and DELFIA enhancement solution added (50 μl) and plates read on a Perkin Elmer Fusion plate reader (excitation=320 nm, emission 620 nm). The format of the assay is shown in.
(ELISA stands for enzyme-linked immunosorbent assay.)

Another assay deals with T7, human TNC rCd4-His-FBG (rat; human, UniProt P05540 207-386).
T7 construct: domain: domains 3 and 4; Biotinylated in the ELISA and HTRF assays; also called Hu TNC; human TNC FBG
T7 sequence: T1 sequence
Briefly: HTRF competition, scFv supernatant, competitor d2-labelled B12 IgG, biotinylated human rCd4-His-FBG. On the procedure:
An HTRF-based competition assay was developed to screen for antibody variants with improved binding to human TNC FBG.
All samples and reagents were prepared in assay buffer (50 mM NaPO₄, 0.1% BSA, 0.4 M KF, pH 7.0) at 4× the stated concentration. 5 μl of each reagent was subsequently added to low volume 384-well assay plates (Greiner, 784075) to give a final reaction volume of 20 μl. IgG antibodies were labelled using the d2 labelling kit (CisBio, 62D2DPEA) as directed by the manufacturer. Streptavidin europium cryptate (CisBio, 610SAKLA, Lot#25C) was used at a final concentration of 1.8 ng active moiety (SA) per 20 μl reaction as recommended by the manufacturer. Biotinylated rCd4-His-FBG was prepared using EZ-link Sulfo-NHS-LC-Biotin reagent (Thermo Scientific, 21327) the extent of biotinylation was quantified using biotinylation fluorescence quantitation kit (Thermo Scientific, 46610). Where appropriate, supernatants containing scFv (prepared as described above for ELISA assays) were added to the 384-well assay plate at a final dilution of 1/20 (i.e. 1/5 dilution in assay buffer followed by addition of 5 μl diluted sample to the 20 μl FRET assay). […] Unless otherwise stated, biotinylated rCd4-His-FBG (biotin:protein ratio=1.8:1) was present at either 2.2 nM (in assays using the 2A5 IgG antibody) or 1 nM (in experiments using B12 IgG). Samples were incubated for approximately 1 h at room temperature and the FRET signal was determined using a BMG Pherastar instrument: excitation=320 nm; emission=620 nm and 665 nm; integration start time=60 μs; integration time=500 μs; 100 flashes per well. For competition assays containing culture supernatant, biotinylated rCd4-His-FBG antigen was pre-incubated with streptavidin europium cryptate for 45 min prior to addition of reagents to the assay plate. All FRET signals are presented as ΔR, where R=(E665/E620×104) and ΔR=(Rsample−Rbackground fluorescence).
Culture supernatants containing unlabelled scFv clones from affinity selected mutant libraries were tested for inhibition of the interaction between FBG and the fluorophore-labelled parental IgG antibody.
A general note: TR-FRET usually uses a lanthanide donor and a delayed reading to cut background.

B1: 2A5 scFv (scFv, V domains shown, not shown: small tags and cut ends)
VH: EVRLVQSGAEVKKPGASVKVSCKVSGYTLTELSMHWVRQAPGKGLEWMGGFDPEDGETIYAQKFQGRVTMTEDTSTDTAYMELSSLRSEDTAVYYCATAQKETYALTYWGQGTLVTVSS
VL: DIQMTQSPASLPTSVGDRVTITCRASQYIQGFLNWYQQKPGKAPRLLIYAASTLQDGVPSRFSGSGYGTDFTLTISSLQPEDFATYYCQQSYSTPWTFGQGTKVEIK
Take B1: in assay [1], the % inhibition by parent scFv worked out at 19%.

B2: 165_13_C3 IgG4 (antibody, V domains shown)
VH: QVQLVESGGGLVQPGRSLRLSCAASGFTFDDYAMHWVRQAPGKGLEWVSGISGSGGSTYYADSVKGRFTISRDNAKNSLYLQMNSLRAEDTALYYCAKSYQSDEDAFDIWGQGTMVTVSS
VL: DIQMTQSPASLPTPVGDRVTITCRASQYIQGFLNWYQQKPGKAPKLLIYDASNLETGVPSRFSGSGSGTDFTLTISSLQPEDFATYYCQQSYSTPQTFGQGTKVDIKR
For B2, the koff (in general, the rate constant with which the complex falls apart) with mouse TNC rCd4-His-FBG [2] turned out to be 3.3e-06 s⁻¹; in assay [3], 0.012 s⁻¹; in the assay with mouse TNC rCd4-His-FBG [4], 0.000445 s⁻¹; in assay [5], 0.0431 s⁻¹; in assay [6] it was 0.0108 s⁻¹; in assay [7], 0.00083 s⁻¹. Besides, the koff in [8] came out at 0.00473 s⁻¹. For the same molecule, the equilibrium dissociation constant (Kd) (usually the constant that tells how readily two partners part at equilibrium) with mouse TNC rCd4-His-FBG [4] was 0.46 nM; in [5], 35.8 nM; in [6], 1.8 nM; in [7] it was 0.072 nM; in [8], 1.22 nM. Further, the kon – broadly, the rate constant with which the complex forms – in the assay with mouse TNC rCd4-His-FBG [4] worked out at 972000 M⁻¹ s⁻¹; in [5], 1.2e+06 M⁻¹ s⁻¹; in assay [6] it was 5.97e+06 M⁻¹ s⁻¹; in assay [7], 1.16e+07 M⁻¹ s⁻¹; in assay [8] it was 3.89e+06 M⁻¹ s⁻¹. Further, in [9], the fold lower affinity for human TNR FBG than for human TNC FBG was greater than 70 fold.

B3: B12 Fab (Fab, V domains shown)
VH: B2 VH with S99D, Y100I, Q101S, S102A, D103V, E104P, A106T
VL: B2 VL
notes: Monomeric Fab from a dual promoter Fab vector; also called B12 parental antibody
Take B3: the “fold lower affinity for human TNR FBG than for human TNC FBG” value with human TNR rCd4-His-FBG is greater than 60 fold.

B4: 165_13_E1 scFv (scFv, V domains shown, not shown: small tags and cut ends)
VH: B2 VH with S99D, Y100I, Q101S, S102A, D103V, E104M, A106V, F107P, D108Q, I109T
VL: B1 VL with S14P, R45K, A50D, T53N, Q55E, D56T, Y67S, W96Q, E105D
notes: VH CDR3 DISAVMDVPQT; 48 is used
Consider B4, for which the “fold improvement for mouse FBG binding (against the parent B12)” value with mouse TNC rCd4-His-FBG [10] is no less than 4 fold. In the assay with human TNC rCd4-His-FBG, the “% inhibition of HTRF signal” value amounted to 91%.

B5: 180_11_F5 scFv (scFv, V domains shown, not shown: small tags and cut ends)
VH: B2 VH with S99V, Y100M, Q101R, S102T, D103G, E104L, A106T
VL: B1 VL with S14P, R45K, A50D, T53N, Q55E, D56T, Y67S, W96Q, E105D
notes: VH CDR3 VMRTGLDTFDI
As for B5, the “fold improvement for mouse FBG binding (against the parent B12)” value with mouse TNC rCd4-His-FBG [10] is no less than 4 fold. In the assay with human TNC rCd4-His-FBG, the “% inhibition of HTRF signal” value came out at 91%.
